Consider four molecules from patent US7736875B2, “Dipeptidyl peptidase I crystal structure and its uses” (Prozymex A/S, priority 2000, dated 2010).

Series [1] in a line: DPPI transferase assay. The class given is biochemical, rat. Particulars: FIG. 8. From the text:
The rate of transfer of dipeptides from a donor peptide to the nucleophilic amino terminus of an acceptor peptide, the ratio of dipeptide transfer to hydrolysis and the stability of elongated peptide product to hydrolytic turnover are estimated in a transferase assay.
In these reactions, X and Y are any amino acid residue with the exception of prolyl. X is preferably Phe and Y is preferably Arg or Lys and pNA is a para-nitroanilide group. H and COOH indicate unblocked peptide amino and carboxy termini, respectively. In the transferase reaction, DPPI catalyses the transpeptidation of dipeptide H-Pro-X from the peptide amide to the free amino group of residue Y. The dipeptide can not be transferred to a second H-Pro-X-NH2 molecule because of the N-terminal Pro residue. The progress of the transpeptidation reaction is monitored in the trypsin cleavage reaction, in which produced H-Pro-X-Y-pNA tripeptide is hydrolysed following the addition of trypsin endoprotease to an aliquot of reaction mixture. Trypsin hydrolyses H-Pro-X-Arg/Lys-pNA much more rapidly than H-Arg/Lys-pNA (low aminopeptidase activity) making it possible to determine the amount of tripeptide formed. The transferase reaction is essentially stopped upon addition of trypsin because the reactants are diluted 10-fold (resulting in an approximately 100-fold lower rate) and because DPPI is unstable at pH 8.3.
The concentration of tripeptide obtained also depends on the rates of hydrolysis of the initial substrate (Hydrolysis reaction 1) and of the tripeptide (Hydrolysis reaction 2):
The hydrolysed peptides […] and […] are not DPPI substrates and can no longer be used in peptide synthesis. Accordingly, the peptidase activity of DPPI degrades both the trypsin substrate (before trypsin is added to the reaction mixture) and one of its precursors.
20 μl of DPPI (1-50 U/ml) in 20 mM Tris-HCl or sodium phosphate-NaOH buffer pH 7.5 is mixed with 20 μl 20 mM dithiothreitol (DTT) and allowed to incubate for 30 min at 5-37° C., preferably 12° C. Meanwhile, 10 μl 400 mM H-Pro-X-NH2 and 10 μl 500 mM H-Y-pNA (both in 100% dimethyl formamide) and 140 μl […] Tris-HCl or sodium phosphate-NaOH buffer, pH 7.5 are mixed and incubated at the same temperature. The transferase and hydrolysis reactions are initiated by the addition of reduced and activated DPPI to the peptide mixture (same temperature). All reaction mixtures should include a minimum of 10 mM chloride.
The progress of the reaction is followed by mixing 10 μl aliquots with 1 μM trypsin in 0.1 M Tris-HCl buffer pH 8.3 and at 5-37° C., preferably 20-37° C. A yellow colour quickly appears. After 10 min, 1000 μl of water are added and the absorbance at 405 nm is measured against an appropriate blank.

The subject of series [2] is one or more cysteine peptidases present in the eluates of the Butyl SEPHAROSE FF column. The experiment in a line: Proteolytic processing of immature DPPI peptides in Butyl Sepharose FF eluate (SDS-PAGE). Particulars: eluate incubated at pH 4.5, 4° C. The class given is biochemical. On the procedure:
DPPI eluted from the hydrofobic interaction column was in general only partially processed to the mature, active form. To complete the processing, the eluate was incubated at pH 4.5 and 4° C. for 18-40 hours to convert the immature peptides to the peptides of mature rrDPPI or rhDPPI. […] Furthermore, the rate of processing was dependent on the pH of the buffer during incubation. No conversion of the immature peptides could be observed at pH 7.0 as determined by SDS-PAGE analysis but processing was observed when incubation was performed at pH 6.5 or below. The processing proceeded at highest rate at about pH 4.5. The fully processed rhDPPI and rrDPPI were finally purified and concentrated on Q-SEPHAROSE™ FF as described above. Recombinant hDPPI was quantified using an extinction coefficient at 280 nm of 2.0.

As to “D274Q: rat DPPI active site mutant Asp274 to Gln274”, the “influence of mutation on rat DPPI transferase activity” value in series [1] (versus wild type rat DPPI) was “no favourable influence”.

Regarding `CC(C)C[C@H](NC(=O)[C@H]1O[C@@H]1C(=O)O)C(=O)NCCCCN=C(N)N` [E-64, reference compound], in series [2] (addition of 1 μM E-64), the “proteolytic processing of the immature peptides to mature rrDPPI or rhDPPI” value is given as “completely blocked”.

For the molecule “N226S229:Q226N229: rat DPPI active site double mutant Asn226:Ser229 to Gln226:Asn229”, in series [1], the “stability of the produced tripeptide product in presence of the variant” value is recorded as “much more stable” and the “transferase activity versus hydrolytic activity (maximum level of tripeptide)” value is reported as “favoured over the hydrolytic activity”. Also, the “rate of generation of the tripeptide substrate” value in series [1] (compared with wild type and D274Q) is on record as “nearly as fast as the other two variants”.

B1: chicken cystatin: non-covalent protein inhibitor of cysteine peptidases of the cystatin family (protein, UniProt P01038 24-139, looked up)
Cystatin: SEDRSRLLGAPVPVDENDEGLQRALQFAMAEYNRASNDKYSSRVVRVISAKRQLVSGIKYILQVEIGRTTCPKSSGDLQSCEFHDEPEMAKYTTCTFVVYSIPWLNQIKLLESKCQ
In the case of B1, in series [2] (addition of 0.1 μM chicken cystatin), the “proteolytic processing of the immature peptides to mature rrDPPI or rhDPPI” value was “completely blocked”.
